Measurements reported in patent publication US20250367270A1.

Biological target: SARS-CoV-2 recombinant spike HexaPro protein (SARS-CoV-2) (UniProt P0DTC2)
Assay: SPR
Conditions: Fc fusion

FcACE2 dimer construct (Fc-linker-ACE2) was tested. Which Kd did it give?
The Kd was 0.43 nM.
